Assay: soluble on expression in E. coli; label from the status in PepcDB or PDB records

Sequence | soluble on expression in E. coli
MNSLSLPHRYPFLFIDGVTDSEPGKHAAAYKLISENDWFITDTQTEMPFSLVIEGLRKPRLLQELQMRTAWDYCLRKRKSWEKLCLVTGLILRLKSRAIGAGLCSDMPRHQLESSLLLKLKSASILKNEKNPSQHFVRGSILCRNPVRFESYLFAGVCVFHHSYFPSALHLEHHHHHH | not soluble
QMQMGLSSFDRVMDVVDMTAEHPDPEHPLDLPAGPLSLELENVHFDGILNGTTLTVPAGDTVAIVGPPGSGKTMAVQLLCGFYRPESGQIRLGGVDTTQLRRHDLRNAVSCVFDDPFLYSASIRDNIAMGRNVTDVEIERAARIAQAHDFITALPHGYDEIVGERGLTLSGGQRQRIAIARAVLERPRVLILDDATSAIDVTTEHAIYEQLSTELSDVTILAVAHRNSTLSLADSVALIDNGRIVDHGSLSYMRANPQFVYLMDVQEHLRKRNSHEPFVPFDDGTEPEWTQLWPEIASSQHDSRLTINSSAMKAAASVAGANPAAGGRGRGRGGMAASIPATPELLARVDALPPTRDTPGPRPLLDHDHGKVTAHQLFASVR | not soluble
MTDLEVSVDDLVKLLSPTMSLIVRRKTMEVVTQLGTPLDGSAGKYFQAQDFALGKAICQLCEATSSDRTETLAALTNFTSGSIEAADFVLDKSKCVEIAYTAVVTNALYSSVASRLLVNVSRHFPDRVDHKLKARNANYIGQLLNEIKKSVETGDEDRAKFVGFTVVNLSVLPPIRQNIVQGGENESSPPSTTMKLLPIVCELLTTAETTEIRECAADVLRNLAFDDSLHGSLLDTSDEYLCSILAPLMDVNDNLDEEEIAKLPVRLQYYEKERDSSDIVRQKLIEALFQLCATKHGREVLRAKGVYPAMRELDKGTETAEDKHKKTLLSSQQEHTLHALIGILIRYESEMDVDPELSSIRELGTSEVTEITKTS | not soluble
TMNPLYSVKRAEKRRNVVLGRMLEVGKITQQQYEQAKAETVTATFYGTALEFRADYVTEMIRQEMVKRYGEDVAYNKGF | not soluble
VTDASVHPDELDPEYHHHGGFPEYGPASPGAGFGQFVATMRRLQDLAVAADPGDAVWDEAAERAAALVELLSPFEADEGKAPAGRTPGLPGMGSLLLPPWTVTRYGTDGVEMRGSFSRFHVGGNSAVHGGVLPLLFDHMFGMISHAAGRPISRTAFLHVDYRRITPIDVPLIVRGRVTNTEGRKAFVCAELFDSDETLLAEGNGLMVRLLPGQP | soluble
METNLFKLSLDDVETPKGSMLDLKISQSKIALPKNTVGGTILRSDLLANFLTEGNFRASVDLQRTHRIKGMIKMVATVGIPENTGIALACAMNSSIRGRASSDIYTICSQDCELWNPACTKAMTMSFNPNPCSDAWSLEFLKRTGFHCDIICVTGWTATPMQDVQVTIDWFISSQECVPRTYCVLNPQNPFVLNRWMGKLTFPQGTSRSVKRMPLSIGGGAGAKSAILMNMPNAVLSMWRYFVGDLVFEVSKMTSPYIKCTVSFFIAFGNLADDTINFEAFPHKLVQFGEIQEKVVLKFSQEEFLTAWSTQVRPATTLLADGCPYLYAMVHDSSVSTIPGDFVIGVKLTIIENMCAYGLNPGISGSRLLGTIPQ | soluble
MGSDKIHHHHHHMSLLVRAAALTNYCEVARAGGLDPLRMMFDAGISPSVLREPDLMIQVDRFGRLLQTSATLSGNESFGLSMAESRLLSNLGPVGMLIRDQATLRDALGMLMRYQSILNGAKSLAVDECGGRVIIREVLIAGSAHQPTRQRVELALGVMVRLIRQLIKPDWQPQRVCFEHPAPRDLSTHQRFFGPNVAFNCDFNGIVCAKSDLDARNPWADPAMARYAQRLIDESAAARQTTMLEDVRRTILLLLPGGRCSVEQVAENLGVVCRTVQRRLAEQGQSFSSVVNDIRVELAMRHVVESDRPFTEVATLLGFSAPSGFSRWYQTQFGCSPKESRAASAAVGERVTETPSPARSSPTVRPLSRG | not soluble
MLTESTDKKAVNQVIHYVYEGGGEAATDHNATVDFSRTITTDRVTNDKTYGDWTADNGDSFASVTSPVIDGYTADQLKVSEMTGITADTEDISVTVTYTRNQGTIDITYIDQTTGQTLSKLEHHHHHH | not soluble
MGSDKIHHHHHHMAMTTEFANEITDVAKAIYEYAELGSSEYKSSSYLVEAFKRHGFQVDFPYLGMKTAFKARYFNGKPMVGLLAEYDALPNGHSCGHDLIAAWAFGTAIRLKDEFGISVTVFGTPSEEGIGEYAGSKAKFAQSGAFSDVDYVIGMHPDDRWAVGSTSLADLTIEAQFIGKSSHLLSPDYGINALDPLVESYVALSNFRRSVPNSKYPVIGMIVKEGGRASNVIPDKASMEIDIRAKKKADLAGFVDQIERILKMEGEMHYCKLNINEVTPIYDEYKSNRVIDSLLEEECQKHAVNPFNVDRSGEEPMGSTDEANVSQVIPTGHLDVKIVDPGIPAHTDEFRIAADPSRSGKTLLKAIDITVETIKTIWQDKKFMNKIKEEFKK | not soluble
MRIVPFGAAREVTGSAHLLLAGGRRVLLDCGMFQGKEEARNHAPFGFDPKEVDAVLLTHAHLDHVGRLPKLFREGYRGPVYATRATVLLMEIVLEDALKVMDEPFFGPEDVEEALGHLRPLEYGEWLRLGALSLAFGQAGHLPGSAFVVAQGEGRTLVYSGDLGNREKDVLPDPSLPPLADLVLAEGTYGDRPHRPYRETVREFLEILEKTLSQGGKVLIPTFAVERAQEILYVLYTHGHRLPRAPIYLDSPMAGRVLSLYPRLVRYFSEEVQAHFLQGKNPFRPAGLEVVEHTEASKALNRAPGPMVVLAGSGMLAGGRILHHLKHGLSDPRNALVFVGYQPQGGLGAEIIARPPAVRILGEEVPLRASVHTLGGFSGHAGQDELLDWLQGEPRVVLVHGEEEKLLALGKLLALRGQEVSLARFGEGVPV | soluble
MKRLLVIGIMYTMFFLIGNIHLHADERTNVKEITSLEEPTWIFQAGISKGKYHDRQDLGFILQRNTPLKVRQTNPNFKDKLTVRLLSNDSKNEKSIQVGNEWITIQGDTPLVPFIDTPYGEEPALLEYQVGNESATKPLPIYKQQGSVSQFFSTWDQFDGEYALIQGESFQLFIPKKDKELVRSLKDFQSLDELIAYYEDIFAMYDSIIGLDGSTVENKKSQNRYFLKADISGAGGAYYGANWTANSTDSTKMWLDKLSWGTLHEIAHGYQAGFDNQGIFTGEVSNNLFGVQYQYSKYGKKADQVGWLFNFGKKEQVERNLYNALMKENKNYDDLDLRQKLILLTMAKQKAGDEAFAKMYQGYRKLASNAAFKKGDHSLPDLMNQYYSENVQVDFTPVFERWGFKLNHKQIEMNRAKGYPAVTSLAYIVPESQLAKARALVDPDIPINSNFEIVRNQQIASLGLKGNLHIHLNTNEIDTLKGGKIKLKEGNTVIQEKTIETADINLQDVPNGIYTVEISGGKTDSMYHFSTYYAYVKEKDNSLTIDVNEMKVSNLVNETIQFLGLGDDQFAELNTDLEQERAVFTVTTKTPHSYYAGEKYASIELFNEKGEKIYTKEMEGTNVTVVKDIIPLKEGYRIKIYHDEVKKRLTSKATIINPMNKTNEIIMTKWGLKNTYLKNNPEENLMKRIDEEMEVIISNPLLKEIPMQKLEMKKNVWMAINMLSEPQKITYINKYKDSLYNE | not soluble
MAWYEGAFFYQIFPDRFFRAGPPGRPAPAGPFEPWEAPPTLRGFKGGTLWGVAEKLPYLLDLGVEAIYLNPVFASTANHRYHTVDYFQVDPILGGNEALRHLLEVAHAHGVRVILDGVFNHTGRGFFAFQHLMENGEQSPYRDWYHVKGFPLKAYTAHPNYEAWWGNPELPKLKVETPAVREYLLAVAEHWIRFGVDGWRLDVPNEIPDPTFWREFRQRVKGANPEAYIVGEIWEEADFWLQGDMFDAVMNYPLARAVLGFVGGEALDRDLAAQTGLGRIEPLQALAFSHRLEDLFGRYRPEVVRAQMNLLTSHDTPRLLSLMRGSVERARLALALLFLLPGNPTVYYGEEVGMAGGKDPENRGGMVWEEARWQKDLRETVKRLARLRKEHPALRTAPYLRIYAQDGHLAFARGPYLAVVNASPHPFRQDFPLHGVFPRGGRAVDLLSGEVCTPQGGRLCGPVLPPFSLALWREA | soluble
MAAKFHLKKAKDGQFHFNLHAANGEIILTSELYKAKDSALGGIESVRKNSQRDGAFEVKPANNGKFHFVLKATNGQVVGQSQLYASQANAEAGVQSVKRATPEAGLSDES | not soluble
MAPSRRERERERRREQIIRAAEKAFFARGYDRVTMDEIAEEAEVNKALLYYYFKNKESLFFAVNLYGVRILHSMYRRCLELDTDGYGKVRAMVEALYSFSKEHPDYFRIYCYSGTERFELSESEDAREIVDLRTGMWRLMVEAIMEGMNDGSIRSDLDPVELSIYIHTLAINALNLDFTSRMVLEARNISRDRFWEDLEVFLESALRP | not soluble
MSLSHTLKSKTLQELDIEEIKETNPLLKLVQGQRIVQVPELVLESGVVINNFPIAYKTWGTLNEAGDNVLVICHALTGSADVADWWGPLLGNDLAFDPSRFFIICLNSMGSPYGSFSPLTINEETGVRYGPEFPLCTVRDDVRAHRIVLDSLGVKSIACVIGGSMGGMLSLEWAAMYGKEYVKNMVALATSARHSAWCISWSEAQRQSIYSDPNYLDGYYPVEEQPVAGLSAARMSALLTYRTRNSFENKFSRRSPSIAQQQKAQREETRKPSTVSEHSLQIHNDGYKTKASTAIAGISGQKGQSVVSTASSSDSLNSSTSMTSVSSVTGEVKDIKPAQTYFSAQSYLRYQGTKFINRFDANCYIAITRKLDTHDLARDRVDDITEVLSTIQQPSLIIGIQSDGLFTYSEQEFLAEHIPKSQLEKIESPEGHDAFLLEFKLINKLIVQFLKTNCKAITDAAPRAWGGDVGNDETKTSVFGEAEEVTNWEGHHHHHH | soluble
MGSDKIHHHHHHMKEQYKIIVLSDELSKEKIQNTLDKNKCKTIVHLVDVSAIVQIENSFQYIVIWRMDAEKITNELINRGVQSTKIINLTKYMYEWRNKLISIYQINPDLMSLYISMKKAKGDPTYELFATGLSYPHCGISTELLSKKSIKLTLPSQDLYYDYLIASQLLSNNHSFQYCLIGIAYFSFYFDMSLSSESYRIHKVYYPLFQDGHHTVVHSHLPTDGFSHLDTPKPLFSIFNMHFEYILLDELKNESLILPWIHAEWNTTPPHIPFEEHGKIRAASHAKLSYPHTLVENKTIFKKYLELLLKHDIKPLIVVFPVTSHYFNCSSKKLKEDFYNVIKDFQSQYSFQIIDLFDSPLFCDDDFYDSDHMNKKGANKMSVLLNMFIQERKV | not soluble
MSSEAVDATTLVIIPTYNELENLPLIVDRVRTATPDVHVLIVDDNSPDGTGERADKLAADDDHIFVLHREGKGGLCAAYMAGFQWGLERDYQVLCEMDADGSHAPEQLHLLLAEITNGADLVIGSRYVPGGRVVNWPKNRWLLSKGGNVYISVALGAGLTDMTAGYRAFRREVLEALPLDELSNAGYIFQVEIAYRAVEAGFDVREVPITFTEREIGESKLDGSFVKDSLLEVTKWGLKHRGGQAKELSKEMVGLLNYEWKHFKKRNTWLLEHHHHHH | not soluble
MSLSDLPDDIFQIIVKKLGDEDFNHLGPIIRSNKRGRDIGLSREILKSANLMGMCLHPPNIFPGQLFRNFFVRCLEFENATAMYYEAIRLIVREENVMGSLFLLNQLVPTYDYATIAYAFFQMCAGRGDLAGTTFDTIFEQNSVSRWGSIYSFELEVKCEALIDTIMDFQPHFGMTFAPDWKFASSDCLSISECPDWHGVEYFCEGCYIYYVALRILEVL | soluble
MESKRNKPGKATGKGKPVGDKWLDDAGKDSGAPIPDRIADKLRDKEFKSFDDFRKAVWEEVSKDPELSKNLNPSAKSSVSKGYSPFTPKNQQVGGRKVYELHHDKPISQGGEVYDMDNIRVTTPKRHIDIHRGK | soluble
